According to the DeepSol protein solubility set:

Assay: soluble on expression in E. coli; label from the status in PepcDB or PDB records

Sequence	soluble on expression in E. coli
WNIHGKESCDVQLYIKRQSEHSILAGDPFELECPVKYCANRPHVTWCKLNGTTCVKLEDRQTSWKEEKNISFFILHFEPVLPNDNGSYRCSANFQSNLIESHSTTLYVTDVKHHHHHHHH	soluble
MGSDKIHHHHHHAAIIFAFLYFTNNHKTDLESTISEQWNKITTFFSNDFSLPDTMSKLSTDNYKHEAGSRWSQNSASVYIASTDKTIVKAYQTALANWNATGSFTFNIISDKASADITAKDYSDVNSQAAGLAETETNAVTNRMSHVDVKLNRYYLLDASYGYSFDRIVHTAEHELGHAIGLDHDDKETSVMASSGSYNGIQTVDITAVKKLYAN	not soluble
MGSDKIHHHHHHMTHEFVTILHTNDLHSHVEHWPRIANWIKTRRAQLQAAGHFVLTFDVGDFIDRYDANTQATWGKANVELLNDCTFDGVTIGNNEGLGLPRDRMEDIYSERRFAVLLANIFENDHGLPKWAEEYRVFVTPKGTRISAFGLTAAYDLTYPLLDWLPAQPVETLEKLSDRVIAQSDIRILLSHLGLPTDQSLARRFKEISVILGAHTHHLLPKGQMVENTLLAAAGKYGENVGEVDLEIDEKHQVVSERAHTIKFDNLPEVESASAFLENWRESGRNILENQIISNLPTDRSTLQQIDDCADALMEKFQTKIAMISSGMFLDELPAGQLNAFQLLKDLPHTIHPMKIDILGSDLLKLFDEINLQHDHLLNQHINGSGFRGDKFGEIKFYGLHEKQVDPKQHYEIASLDHYYFLPWFHSLQSADVSFDFKNILRELTAGYYREKYSHQEAV	not soluble
MRDLKGIFSALLVSFNEDGTINEKGLRQIIRHNIDKMKVDGLYVGGSTGENFMLSTEEKKEIFRIAKDEAKDQIALIAQVGSVNLKEAVELGKYATELGYDCLSAVTPFYYKFSFPEIKHYYDTIIAETGSNMIVYSIPFLTGVNMGIEQFGELYKNPKVLGVKFTAGDFYLLERLKKAYPNHLIWAGFDEMMLPAASLGVDGAIGSTFNVNGVRARQIFELTKAGKLKEALEIQHVTNDLIEGILANGLYLTIKELLKLEGVDAGYCREPMTSKATAEQVAKAKDLKAKFLS	soluble
MPIATVCTWPAETEGGSTVVAADHASNYARKLGIQRDQLIQEWGWDEDTDDDIRAAIEEACGGELLDEDTDEVIDVVLLWWRDGDGDLVDTLMDAIGPLAEDGVIWVVTPKTGQPGHVLPAEIAEAAPTAGLMPTSSVNLGNWSASRLVQPKSRAGKR	soluble
QVKLQQSGGGLVKPGASLKLSCVTSGFTFRKFGMSWVRQTSDKCLEWVASISTGGYNTYYSDNVKGRFTISRENAKNTLYLQMSSLKSEDTALYYCTRGYSSTSYAMDYWGQGTTVTVSGIEGR	soluble
MAHHHHHHMSRFPEARKQSVQVTRHCGIASQLVTEVNGRNLTHLSVLEQEMLASSNVTEHSRQMMDVVQDPKTDIDDALRMVMLYALRYEKVGGNNTAQLKEMLLKRNCPMERISLIDRLLEYGGADKRLHELFRTSTGHILKIVAKTVGQFGKDIQNVLTQHVPLMKKVINRVYNGTLSEQKYPVQEVVGSPISVSAVPTIRAKDIIIVMVGGVTYSEAMLLYQINQGQVSNNVESLMNLGKNVTRLVSGDSTAKSASGEPYTEKIEARVTLLSTSMIDSKDFIHSLPS	not soluble
MNYIQLQRFNMSKVASIVDVLQGKVAIGETVTVRGWVRTRRDSKAGLSFLAVYDGSCFDPIQAIINNDIENYESEILRLTTGCSVIVTGKVVESPAEGQAVELQAEKVEVTGFVEDPDTYPMAAKRHSIEYLREVAHLRPRTNIIGAVARVRHCLSQAIHRFFHEQGFYWVATPLITASDTEGAGEMFRVSTLDLENLPRSENGKVDFSQDFFGKESFLTVSGQLNGETYACALSKIYTFGPTFRAENSNTTRHLAEFWMVEPEVAFATLADNAKLAEDMLKYVFRAVLAERKDDLQFFEKHVDKDVITRLENFVNSDFAQIDYTDAIDVLLKSGKKFEFPVSWGIDLSSEHERFLAEEYFKSPVVVKNYPKDIKAFYMRLNDDEKTVAAMDVLAPGIGEIIGGSQREERLEVLDKRMEEMGLNPDDYWWYRDLRKYGSVPHSGFGLGFERLIVYVTGVQNIRDVIPFPRAPRNANFLEHHHHHH	soluble
MSLKSVASGKELAGLRVMVIDDSKTIRRTAETLLKREGCEVVTAIDGFEALAKIADQKSQIIFVDIMMPRLDGYQTCALIKNNNLFKSTPVIMLSSKDGLFDKARGRVVGSEQYLTKPFTREELLSAIRTYVNPLKLAEGHHHHHH	not soluble
MTTPTFDINAAIQALREGKDLTGKDGILTPLIKQLTEAALAAELDGHLASTEGANRKNGKTTKTVKSPLGNFELNTPRDRAGTFEPQLVKKHQTQLTDEMERKIIGLFSLGSSYQDIRAHIEDMYGMSVSNGTVNAITDKLLPELQAWRERELEPLYPVIWLDAIHYKIKENGRFISKAVYTILALNVEGKKELLGLYLSDNEGAHHWLSVLTDLYNRGVKDILIACVDGLKGFPEAIATIYPQTEVQLCVIHQIRNSMKYVASKHQKAFMADLKCVYKAATLNAAEMALDELETKWGDKYPVVIKSWRNKWALLSVYFKYPDYVRTAIYTTNAVEAVHRQFRKLTKTKGGFANENSLLKLLYAGILKASERWTHPIQNWNLTLSQLSIHFEGRLENHIDL	not soluble
MEEEHEEESHLSQSDTVGSAIVEDGPGKEYEIYIKNEELVDKLKLLNYEDGFLKLGVVYKPILKHYFVKSKNVGEQFFLFTSLAAWLIKKSGDESYNMPQEFDDPNSTLANIMAAAKNKGIATDFTAAKLKSGAGENVIFILNSLADASLVHVGFQWQKMIPPKEEDEDTAVDEQDEDDDNDDIVEEPMNFLDDDDDDNVIEIDLKAQGLATESKNPLQSVLQSNTDAITWKQEVERVAPQLKITLKQDAKDWRLHLEQMNSMHKNVEQKVGNVGPYLDNMSKDIAKALERIASREKSLNSQLASMMSKFRRATDTRAELREKYKAASVGVSSRTETLDRISDDIEQLKQQIEEQGAKSSDGAPLVKIKQAVSKLEEELQTMNVQIGVFEQSILNTYLRDHFNFSANLLNIM	soluble
PAAQSCAARVGAPLVNDTVSISLSDHLTDMPTIESRLHAAAKEGFTITIYNPWSRKRRDNYEKCCEILLEHRDPETPVGVVHAAGREDEQVEIVELGELPELGETDLVDMTTTLLVGNEDTY	not soluble
MSRNHFNELSPCEALIMKLIWEAPQDIPVQELIDQLRDDYGKEYARTTVVTFVGKLKDKRFVDTYRKGKSAFIHPLRSEEEYRRQLLKEEADFWFNGKAVDMVASICESQKLEDDEIKRIKKILNGLNK	not soluble
MALACTDSANSTFSRVDSPTSGPSDQLTTHDLDRHIEKLMRCELIAEQDVKTLCAKAREILAEEGNVQVIDSPVTICGDIHGQFYDLMELFKVGGPVPNTNYLFLGDFVDRGFYSVETFLLLLALKARYPDRMMLIRGNHESRQITQVYGFYDECLRKYGNASVWKHCTEVFDYLSLAAVIDGKVFCVHGGLSPSISTMDQIRVIDRKQEVPHDGPMCDLLWSDPEEGNVGWGLSPRGAGYLFGADASKTFCETNGVDLICRAHQLVMEGYKWHFNEKVLTVWSAPNYCYRCGNVAAILELDENLNKEFTIFEAAPQENRGAPAKKPHADYFL	not soluble
MGSDKIHHHHHHMQVLVVDYTAKDAAEKFVQSLHETGFAVLVNHPIKQSLVESIYKNWQEFFLSEEKHAFAFDPVKQDGYFSSEISETAKGHSKKDIKEYFHVYPWGRIPAQLNDEIFEYYRLASELAAELLDWVEEYSPADIADKYSETLSNMIKETPNTLLRILHYPPLTGNEEAGAVRAASHEDINLLTILPAANEPGLQVQRQNGEWIDVPSDFGNLIINIGDMLQETSAGYFPSTSHRVINPTGKGSDKSRISLPLFLHPRSEVVLSDKHTQASYLLERLRELGVKV	not soluble
MYVMTQSGWLELICGCMFSGKSEELIRRVRRAQFAKQEVKVFKPTIDNRYSEDAVVSHNGNSVIAIPVATPAEMFRYISAATDVVAIDEIQFFSDDIIDVVQTLADCGYRVIAAGLDQDFRGEPFGPVPALMAIAESVTKLQAVCTVCGSPASRTQRLINGAPASYDDPVILVGASEAYEPRCRHHHEVPGKPKKRYNHPLAGHTGE	soluble
MNQEKLDLRKSAADDTHSGAAFAFQALTPDLILDAIESLGVYPETGLLALNSYENRVYQFRSDEGQRYVVKFYRPDRWSDAQIQEEHDFALALAEQEIPMAVPTAVQGHTLHHFQGFRFALFPSIGGRAFEVDNLEQLEFVGRFIGRMHQYGAQSVFQAREPLNPQILGDEPLAWLKQSELVPTSLRVAFFTVVEQVLAKVNTLWAQQRFKPIRLHGDLHPGNILWTPDGPGFVDLDDARMGPAIQDLWMMLTGDRAQQQLQLEVLLEAYEEFCEFDTRQLALIEPLRALRMVHYNAWIGRRWQDPAFPMHFPWFGDEKYWEQQILAFKEQLAALDEPPLSLIPY	not soluble
MTKKQLHLVIVTGMSGAGKTVAIQSFEDLGYFTIDNMPPALLPKFLQLVEIKEDNPKLALVVDMRSRSFFSEIQAVLDELENQDGLDFKILFLDAADKELVARYKETRRSHPLAADGRILDGIKLERELLAPLKNMSQNVVDTTELTPRELRKTLAEQFSDQEQAQSFRIEVMSFGFKYGIPIDADLVFDVRFLPNPYYLPELRNQTGVDEPVYDYVMNHPESEDFYQHLLALIEPILPSYQKEGKSVLTIAMGCTGGQHRSVAFAKRLAQDLSKNWSVNEGHRDKDRRKETVNRS	not soluble
MKQDGEEGTEEDTEEKCTICLSILEEGEDVRRLPCMHLFHQVCVDQWLITNKKCPICRVDIEAQLPSES	soluble
MSRVAPRDSAAQAASAVAESVRYQGRKASRQGSEQRRQAILDAAMRLIVRDGVRAVRHRAVAAEAQVPLSATTYYFKDIDDLITDTFALFVERNAEALSAFWSSVEGDLQEMAAVLADDPGARGSLVERIVELAVQYVQVQLTERREHLLAEQAFRQEALLNPRLRELADAHQRILSLGAVHFFQVLGSGQPEQDAKVLTSIILQMEYQGLVDGVEQLAVDEMRAILRRYLNLVMGL	soluble
GSDDINQKVAEQLAQKAQSSSLGYDIVESLTVEVGPRLAGSEQDKVAVDWAIAKLQSLGFDRVYKEPVTVPVWRRGIAKASILSPFPQPLVVTALGGSIATPAQGLSATIVRFDTLQDLQNAEAGSLNDKIAFIDAKTERHRDGKGYGQTASGRSRGAVAAAEKGAVGIIIRSIGTDHDRMAHTGMMRYEEGVTAIPAAAISNPDADLINAMLKRDKEVVISLELGSERRGETTSYNVIAEVKGSTKADEIVLIGAHLDSWDEGTGAIDDGAGVAIVTAAAKHILDLPQKPERTIRVVLYAAEELGLLGGKTYAKEHEAELEKHYIAAESDFGAGPIYQIDWRVADTAHSPVINAMKVAEPLGVAAGNNKASGGPDVSMLPALGVPVASLRQDGSDYFDYHHTPNDTLDKINPEALAQNVAVYAQFAWVMANSKVELRPLPPKE	soluble
MATKVYIVYYSMYGHVEKLAQEIRKGAASVDGVEAILWQVPETLQEDVLSKMSAPPKSDAPIITPNELAEADGFIFGFPTRFGMMAAQFKAFLDATGGLWRTQQLAGKPAGIFYSTGSQGGGQETTALTAITQLVHHGMIFVPIGYTFGAGMFEMENVKGGSPYGAGTFAGDGSRQPTELELGQAFHQGKYIAAISKKLKGPAAA	soluble
MALMNILPFARFLLDQAVNEGDIAVDATVGNGHDTVYLAERVGDFGHVFGFDIQPEAITAASARLAEHGLCGRATLFERSHSELLEALPADVHGRIAGAVFNLGYLPGGNKQIVTQPESTIEAVRQLLSVMKPGGVIVLVVYHGHPEGKRERDALLDYVRSLDQRRVHALKYEFINRQNNPPFLIALENRADGGA	not soluble
